Our source for the change in the absorbance and S/N ratio (No. 8 against No. 4 without antigen) values is patent US20160251450A1.

Test [1] addresses Anti-OVA IgG (rabbit-derived). The experiment in a line: ELISA: OVA coated, rabbit Anti-OVA IgG, then wild-type pG sample (negative control), then HRP-labeled anti-guinea pig IgG, TMB. The signal needs a second free IgG-binding site. Background: An ELISA detects its analyte on a solid surface through an enzyme-linked reagent.
In test [2] the target is Anti-OVA IgG (rabbit-derived). The experiment in a line: ELISA: OVA coated, rabbit Anti-OVA IgG, then K-tag pG alone (negative control), then HRP-labeled anti-guinea pig IgG, TMB. The signal needs a second free IgG-binding site.
Test [3] concerns the target Anti-OVA IgG (rabbit-derived). The experiment in a line: ELISA: OVA coated, rabbit Anti-OVA IgG, then HRP-labeled anti-rabbit IgG instead of the hybrid, TMB (sample No. 8).
The target in test [4] is Anti-OVA IgG (rabbit-derived). The experiment in a line: ELISA: OVA coated, rabbit Anti-OVA IgG, HRP-labeled anti-rabbit IgG. Signal against the no-antigen control.

In turn, “wild-type pG having no introduced K-tag (thrombin-treated K-tag pG)” had a change in the absorbance at 370 nm (dO.D./min) in test [1] of less than 0.03 dO.D./min. “recombinant protein G with K-tag (K-tag pG), alone, not cross-linked to polymer” displayed a change in the absorbance at 370 nm (dO.D./min) in test [2] of less than 0.03 dO.D./min. As for “commercially available HRP-labeled anti-rabbit IgG (antibody)”, the change in the absorbance at 370 nm (dO.D./min) in test [3] was determined as 0.18 dO.D./min. Further, the S/N ratio (No. 8 against No. 4 without antigen) in test [4] was 4.6.
